Laboratory results from patent publication US20250188166A1 (BRIGHT PEAK THERAPEUTICS, published 2025).

T1: IL-18R on HEK-Blue IL18R reporter cells (UniProt Q13478 19-541; O95256 20-599)
T1 sequence (looked up) 1: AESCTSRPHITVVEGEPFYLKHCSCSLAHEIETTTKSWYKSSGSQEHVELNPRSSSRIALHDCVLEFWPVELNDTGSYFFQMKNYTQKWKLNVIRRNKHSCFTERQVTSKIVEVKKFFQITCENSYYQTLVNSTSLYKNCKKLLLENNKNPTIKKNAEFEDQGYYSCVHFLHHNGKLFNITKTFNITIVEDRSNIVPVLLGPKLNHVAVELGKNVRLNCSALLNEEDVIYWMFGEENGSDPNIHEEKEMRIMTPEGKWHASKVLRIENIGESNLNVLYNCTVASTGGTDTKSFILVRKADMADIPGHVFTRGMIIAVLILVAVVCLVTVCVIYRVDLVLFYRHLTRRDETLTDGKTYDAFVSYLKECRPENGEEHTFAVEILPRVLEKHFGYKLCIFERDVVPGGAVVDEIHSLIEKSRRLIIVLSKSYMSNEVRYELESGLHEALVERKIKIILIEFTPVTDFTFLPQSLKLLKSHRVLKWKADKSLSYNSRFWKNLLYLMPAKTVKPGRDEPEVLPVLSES
T1 sequence (looked up) 2: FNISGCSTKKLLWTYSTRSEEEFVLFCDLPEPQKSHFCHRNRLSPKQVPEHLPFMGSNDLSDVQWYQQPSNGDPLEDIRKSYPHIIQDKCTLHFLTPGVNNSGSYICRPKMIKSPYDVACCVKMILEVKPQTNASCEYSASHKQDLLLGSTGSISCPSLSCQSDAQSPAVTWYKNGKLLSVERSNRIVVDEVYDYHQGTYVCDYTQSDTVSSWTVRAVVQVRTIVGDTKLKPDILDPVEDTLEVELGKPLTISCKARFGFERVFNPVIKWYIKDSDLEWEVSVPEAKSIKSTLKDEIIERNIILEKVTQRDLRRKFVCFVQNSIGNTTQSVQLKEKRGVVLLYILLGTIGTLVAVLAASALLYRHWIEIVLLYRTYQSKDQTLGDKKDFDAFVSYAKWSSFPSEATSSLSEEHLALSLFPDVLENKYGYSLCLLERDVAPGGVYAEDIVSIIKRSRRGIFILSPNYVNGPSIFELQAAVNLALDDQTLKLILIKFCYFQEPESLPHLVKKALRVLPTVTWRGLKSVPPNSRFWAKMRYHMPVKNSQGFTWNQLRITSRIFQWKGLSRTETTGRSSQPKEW


Molecular target: T1, IL-18R on HEK-Blue IL18R reporter cells
Assay: cell-based or functional assay

Binder	EC50, HEK-Blue IL18R SEAP reporter [pM]
IL-18 polypeptide C142 (ligand) MFGKLKSKLSIIRNLNDQVLFIDQGNRPLFEDMTDSDARDNAPRTIFIISMYADSQPRGMAVAISVKCEKISTLSAENKIISFKEMNPPDNIKDTKSDIIFFQRSVPGHDNKMQFESSSYEGYFLAAEKERDLFKLILKKEDELGDRSIMFTVQNED	0.02
IL-18 polypeptide C156 (ligand) YFGKLESKLSIIRNLNDQVLFIDQGNRPLFEDMTDSDARDAAPRTIFIISMYADSQPRGMAVTISVKCEKISTLSAENKIISFKEMNPPDNIKDTKSDIIFFQRSVPGHDNKMQFESSSYEGYFLAAEKERDLFKLILKKEDELGDRSIMFTVQNED	11.7
IL-18 polypeptide C162 (ligand) YFGKLESELSIIRNLNDQVLFIDQGNRPLFEDMTDSDARDNAPRTIFIISMYKDSQPRGMAVTISVKCEKISTLSAENKIISFKEMNPPDNIKDTKSDIIFFRRSVPGHDNKMQFESSSYEGYFLAAEKERDLFKLILKKEDELGDRSIMFTVQNED	2.3
IL-18 polypeptide C163 (ligand) YFGKLESKLSIIRNLNDQVLFIDQGNRPLFEDMTDSDARDNAPRTIFIISMYKDSQPRGMAVTISVKCEKISTLSAENKIISFKEMNPPDNIKDTKSDIIFFKRSVPGHDNKMQFESSSYEGYFLAAEKERDLFKLILKKEDELGDRSIMFTVQNED	1.5
IL-18 polypeptide C158 (ligand) YFGKLESKLSIIRNLNDQVLFIDQGNRPLFEDMTDSDARDNAPRTIFIISMYADSQPRGMAVTISVKCEKISTLSAENKIISFKEMNPPDNIKDTKSDIIFFQRSVPAHDNKMQFESSSYEGYFLAAEKERDLFKLILKKEDELGDRSIMFTVQNED	15.6
IL-18 polypeptide C151 (ligand) YFGKLESKLSIIRNLNDQVLFIDQGNRPLFEDMTASDARDNAPRTIFIISMYADSQPRGMAVTISVKCEKISTLSAENKIISFKEMNPPDNIKDTKSDIIFFQRSVPGHDNKMQFESSSYEGYFLAAEKERDLFKLILKKEDELGDRSIMFTVQNED	13.1
IL-18 polypeptide C152 (ligand) YFGKLESKLSIIRNLNDQVLFIDQGNRPLFEDMTDADARDNAPRTIFIISMYADSQPRGMAVTISVKCEKISTLSAENKIISFKEMNPPDNIKDTKSDIIFFQRSVPGHDNKMQFESSSYEGYFLAAEKERDLFKLILKKEDELGDRSIMFTVQNED	0.25
IL-18 polypeptide C147 (ligand) YFGKLESKLSIIRNLNDQVLFIDQGNRPLFEDMTDSDARDNAPRTIFIISMYAASQPRGMAVTISVKCEKISTLSAENKIISFKEMNPPDNIKDTKSDIIFFQRSVPGHDNKMQFESSSYEGYFLAAEKERDLFKLILKKEDELGDRSIMFTVQNED	1
IL-18 polypeptide C154 (ligand) YFGKLESKLSIIRNLNDQVLFIDQGNRPLFADMTDSAARDNAPRTIFIISMYADSQPRGMAVTISVKCEKISTLSAENKIISFKEMNPPDNIKDTKSDIIFFQRSVPGHDNKMQFESSSYEGYFLAAEKERDLFKLILKKEDELGDRSIMFTVQNED	11.9
IL-18 polypeptide C143 (ligand) YFGKLESKLSIIRNLNDQVLFIDQGNRPLFEDMTDSDARDNAPRTIFIISMYADSQPRGMAVTISVKCEKISTLSAENKIISFKEMNPPDNIKDTKSDIIFFQRSVPGHDNKMQFESSSYEGYFLAAEKERDLFKLILKKEDELGDRSIMFTVQNED	0.98
IL-18 polypeptide C160 (ligand) YFGKLESKLSIIRNLNDQVLFIDQGNRPLFEDMTDSDARDNAPRTIFIISMYADSQPRGMAVTISVKCEKISTLSAENKIISFKEMNPPDNIKDTKSDIIFFQRSVPGHANKMQFESSSYEGYFLAAEKERDLFKLILKKEDELGDRSIMFTVQNED	2.02
IL-18 polypeptide C157 (ligand) YFGKLESKLSIIRNLNDQVLFIDQGNRPLFEDMTDSDARDNAPRTIFIISMYADSQPRGMAVTISVKCEKISTLSAENKIISFKEMNPPDNIKDTKSDIIFFQRSVPGHDNKMQFESSSYEGYFLAAEKERALFKLILKKEDELGDRSIMFTVQNED	1.95
IL-18 polypeptide C145 (ligand) YFGKLESKLSIIRNLNDQVLFIDQGNRPLFEDMTDSDARDNAPRTIFIISMYADAQPRGMAVTISVKCEKISTLSAENKIISFKEMNPPDNIKDTKSDIIFFQRSVPGHDNKMQFESSSYEGYFLAAEKERDLFKLILKKEDELGDRSIMFTVQNED	3.63
IL-18 polypeptide C150 (ligand) YFGKLESKLSIIRNLNDQVLFIDQGNRPLFEDMADSDARDNAPRTIFIISMYADSQPRGMAVTISVKCEKISTLSAENKIISFKEMNPPDNIKDTKSDIIFFQRSVPGHDNKMQFESSSYEGYFLAAEKERDLFKLILKKEDELGDRSIMFTVQNED	0.7
IL-18 polypeptide C148 (ligand) YAGKLESKLSIIRNLNDQVLFIDQGNRPLFEDMTDSDARDNAPRTIFIISMYADSQPRGMAVTISVKCEKISTLSAENKIISFKEMNPPDNIKDTKSDIIFFQRSVPGHDNKMQFESSSYEGYFLAAEKERDLFKLILKKEDELGDRSIMFTVQNED	7.28
IL-18 polypeptide C164 (ligand) YFGKLESKLSIIRNLNDQVLFIDQGNRPLFEDMTDSDARDNAPRTIFIISMYKDHQPRGMAVTISVKCEKISTLSAENKIISFKEMNPPDNIKDTKSDIIFFQRSVPGHDNKMQFESSSYEGYFLAAEKERDLFKLILKKEDELGDRSIMFTVQNED	3.14
IL-18 polypeptide C155 (ligand) YFGKLESKLSIIRNLNDQVLFIDQGNRPLFEDMTDSDARANAPRTIFIISMYADSQPRGMAVTISVKCEKISTLSAENKIISFKEMNPPDNIKDTKSDIIFFQRSVPGHDNKMQFESSSYEGYFLAAEKERDLFKLILKKEDELGDRSIMFTVQNED	0.52
IL-18 polypeptide C153 (ligand) YFGKLESKLSIIRNLNDQVLFIDQGNRPLFEDMTDSAARDNAPRTIFIISMYADSQPRGMAVTISVKCEKISTLSAENKIISFKEMNPPDNIKDTKSDIIFFQRSVPGHDNKMQFESSSYEGYFLAAEKERDLFKLILKKEDELGDRSIMFTVQNED	14.1
IL-18 polypeptide C144 (ligand) YFGKLESKLSIIRNLNDQVLFIDQGNRPLFEDMTDSDARDNAPRTIFIISMYADSQPRGMAVAISVKCEKISTLSAENKIISFKEMNPPDNIKDTKSDIIFFQRSVPGHDNKMQFESSSYEGYFLAAEKERDLFKLILKKEDELGDRSIMFTVQNED	0.17
IL-18 polypeptide C159 (ligand) YFGKLESKLSIIRNLNDQVLFIDQGNRPLFEDMTDSDARDNAPRTIFIISMYADSQPRGMAVTISVKCEKISTLSAENKIISFKEMNPPDNIKDTKSDIIFFQRSVPGADNKMQFESSSYEGYFLAAEKERDLFKLILKKEDELGDRSIMFTVQNED	19.5
IL-18 polypeptide C146 (SEQ ID NO: 68) (ligand) YFGKLESKLSIIRNLNDQVLFIDQGNRPLFEDMTDSDARDNAPRTIFIISGYADSQPRGMAVTISVKCEKISTLSAENKIISFKEMNPPDNIKDTKSDIIFFQRSVPGHDNKMQFESSSYEGYFLAAEKERDLFKLILKKEDELGDRSIMFTVQNED	0.8
IL-18 polypeptide C149 (ligand) YFGKLESKLSIIRNLNDQVLFIDQGNRPLFADMTDSDARDNAPRTIFIISMYADSQPRGMAVTISVKCEKISTLSAENKIISFKEMNPPDNIKDTKSDIIFFQRSVPGHDNKMQFESSSYEGYFLAAEKERDLFKLILKKEDELGDRSIMFTVQNED	6.6
IL-18 polypeptide C161 (ligand) YFGKLESRLSIIRNLNDQVLFIDQGNRPLFEDMTDSDARDNAPRTIFIISMYKDSQPRGMAVTISVKCEKISTLSAENKIISFKEMNPPDNIKDTKSDIIFFERSVPGHDNKMQFESSSYEGYFLAAEKERDLFKLILKKEDELGDRSIMFTVQNED	2.01
